Laboratory results as given in patent US20190142971A1, “FORMULATION AND DELIVERY OF MODIFIED NUCLEOSIDE, NUCLEOTIDE, AND NUCLEIC ACID COMPOSITIONS” (ModernaTX, Inc., priority 2013, published 2019).

System: non-human primates (cynomolgus monkey)
Assay: Example 22: NHP hematology: neutrophils, reticulocytes, HGB, HCT, RBC (Tables 40-44)
Type: in vivo
Protocol: LNP formulations, shown in Table 33 (above), were administered to non-human primates (NHP) (cynomolgus monkey) (n=2) as intravenous injection (IV). The NHP were administered a single modified mRNA IV dose of 0.5 mg/kg, 0.05 mg/kg or 0.005 mg/kg of G-CSF or EPO in a dose volume of 0.5 mL/kg. The NHPs were bled before dosing with the modified mRNA LNP formulations to determine protein expression in the serum and a baseline complete blood count. After administration with the G-CSF modified mRNA formulation the NHP were bled at 8, 24, 48 and 72 hours to determined protein expression. After administration with the EPO modified mRNA formulation the NHP were bled at 8, 24, 48, 72 hours and 7 days to determined protein expression.
Samples collected from the NHPs after they were administered with G-CSF or EPO modified mRNA formulations were analyzed by ELISA to determine protein expression. Neutrophil and reticulocyte count was also determined pre-dose, 24 hours, 3 days, 7 days, 14 days and 18 days after administration of the modified G-CSF or EPO formulation.

[1] = 0.05 mg/kg, 14/18 days, Female NHP
[2] = 0.05 mg/kg, 14/18 days, Male NHP
[3] = 0.05 mg/kg, 24 hours, Female NHP
[4] = 0.05 mg/kg, Pre-dose, Female NHP
[5] = 0.5 mg/kg, 14/18 days, Female NHP
[6] = 0.5 mg/kg, 14/18 days, Male NHP
[7] = 0.5 mg/kg, 24 hours, Female NHP
[8] = 0.5 mg/kg, Pre-dose, Female NHP

B1: EPO: modified mRNA encoding human erythropoietin, SEQ ID NO: 7, Cap1, fully modified with 5-methylcytosine and pseudouridine; LNP NPA-060-1 in Examples 17-22 (nucleic acid)
chain: GGGAAAUAAGAGAGAAAAGAAGAGUAAGAAGAAAUAUAAGAGCCACCAUGGGAGUGCACGAGUGUCCCGCGUGGUUGUGGUUGCUGCUGUCGCUCUUGAGCCUCCCACUGGGACUGCCUGUGCUGGGGGCACCACCCAGAUUGAUCUGCGACUCACGGGUACUUGAGAGGUACCUUCUUGAAGCCAAAGAAGCCGAAAACAUCACAACCGGAUGCGCCGAGCACUGCUCCCUCAAUGAGAACAUUACUGUACCGGAUACAAAGGUCAAUUUCUAUGCAUGGAAGAGAAUGGAAGUAGGACAGCAGGCCGUCGAAGUGUGGCAGGGGCUCGCGCUUUUGUCGGAGGCGGUGUUGCGGGGUCAGGCCCUCCUCGUCAACUCAUCACAGCCGUGGGAGCCCCUCCAACUUCAUGUCGAUAAAGCGGUGUCGGGGCUCCGCAGCUUGACGACGUUGCUUCGGGCUCUGGGCGCACAAAAGGAGGCUAUUUCGCCGCCUGACGCGGCCUCCGCGGCACCCCUCCGAACGAUCACCGCGGACACGUUUAGGAAGCUUUUUAGAGUGUACAGCAAUUUCCUCCGCGGAAAGCUGAAAUUGUAUACUGGUGAAGCGUGUAGGACAGGGGAUCGCUGAUAAGCUGCCUUCUGCGGGGCUUGCCUUCUGGCCAUGCCCUUCUUCUCUCCCUUGCACCUGUACCUCUUGGUCUUUGAAUAAAGCCUGAGUAGGAAG
modifications: Cap1, 5-methylcytosine, pseudouridine
Female NHP Neutrophils (0.05 mg/kg IV, 3 days): 4.08 10^9/L
Male NHP HGB (0.05 mg/kg IV, 3 days): 116 g/L
Male NHP Neutrophils (0.05 mg/kg IV, 3 days): 1.73 10^9/L
Female NHP HGB (0.05 mg/kg IV, 7 days): 121 g/L
Female NHP Neutrophils (0.05 mg/kg IV, 7 days): 2.77 10^9/L
Male NHP HGB (0.05 mg/kg IV, 7 days): 126 g/L
Male NHP Neutrophils (0.05 mg/kg IV, 7 days): 1.23 10^9/L
Female NHP HGB (0.05 mg/kg IV, Pre-dose): 133 g/L
Female NHP Neutrophils (0.05 mg/kg IV, Pre-dose): 2.15 10^9/L
Male NHP HGB (0.05 mg/kg IV, Pre-dose): 133 g/L
Male NHP Neutrophils (0.05 mg/kg IV, Pre-dose): 0.97 10^9/L
HCT [1]: 0.43 L/L
RBC [1]: 5.57 10^12/L
HCT [2]: 0.46 L/L
RBC [2]: 5.57 10^12/L
HCT [3]: 0.39 L/L
RBC [3]: 5.18 10^12/L
HCT (0.05 mg/kg, 24 hours, Male NHP): 0.43 L/L
RBC (0.05 mg/kg, 24 hours, Male NHP): 5.25 10^12/L
HCT (0.05 mg/kg, 3 days, Female NHP): 0.4 L/L
RBC (0.05 mg/kg, 3 days, Female NHP): 5.16 10^12/L
HCT (0.05 mg/kg, 3 days, Male NHP): 0.38 L/L
RBC (0.05 mg/kg, 3 days, Male NHP): 4.81 10^12/L
HCT (0.05 mg/kg, 7 days, Female NHP): 0.41 L/L
RBC (0.05 mg/kg, 7 days, Female NHP): 5.31 10^12/L
HCT (0.05 mg/kg, 7 days, Male NHP): 0.45 L/L
RBC (0.05 mg/kg, 7 days, Male NHP): 5.37 10^12/L
HCT [4]: 0.43 L/L
RBC [4]: 5.84 10^12/L
HCT (0.05 mg/kg, Pre-dose, Male NHP): 0.45 L/L
RBC (0.05 mg/kg, Pre-dose, Male NHP): 5.57 10^12/L
Female NHP HGB (0.5 mg/kg IV, 14/18 days): 133 g/L
Female NHP Neutrophils (0.5 mg/kg IV, 14/18 days): 2.36 10^9/L
Male NHP HGB (0.5 mg/kg IV, 14/18 days): 146 g/L
Male NHP Neutrophils (0.5 mg/kg IV, 14/18 days): 7.16 10^9/L
Female NHP HGB (0.5 mg/kg IV, 24 hours): 108 g/L
Female NHP Neutrophils (0.5 mg/kg IV, 24 hours): 11.85 10^9/L
Male NHP HGB (0.5 mg/kg IV, 24 hours): 127 g/L
Male NHP Neutrophils (0.5 mg/kg IV, 24 hours): 7.5 10^9/L
Female NHP HGB (0.5 mg/kg IV, 3 days): 120 g/L
Female NHP Neutrophils (0.5 mg/kg IV, 3 days): 5.22 10^9/L
Male NHP HGB (0.5 mg/kg IV, 3 days): 126 g/L
Male NHP Neutrophils (0.5 mg/kg IV, 3 days): 11.07 10^9/L
Female NHP HGB (0.5 mg/kg IV, 7 days): 134 g/L
Female NHP Neutrophils (0.5 mg/kg IV, 7 days): 2.85 10^9/L
Male NHP HGB (0.5 mg/kg IV, 7 days): 140 g/L
Male NHP Neutrophils (0.5 mg/kg IV, 7 days): 11.8 10^9/L
Female NHP HGB (0.5 mg/kg IV, Pre-dose): 123 g/L
Female NHP Neutrophils (0.5 mg/kg IV, Pre-dose): 1.82 10^9/L
Male NHP HGB (0.5 mg/kg IV, Pre-dose): 134 g/L
Male NHP Neutrophils (0.5 mg/kg IV, Pre-dose): 9.72 10^9/L
HCT [5]: 0.46 L/L
RBC [5]: 5.72 10^12/L
HCT [6]: 0.48 L/L
RBC [6]: 5.83 10^12/L
HCT [7]: 0.36 L/L
RBC [7]: 4.69 10^12/L
HCT (0.5 mg/kg, 24 hours, Male NHP): 0.4 L/L
RBC (0.5 mg/kg, 24 hours, Male NHP): 5.12 10^12/L
HCT (0.5 mg/kg, 3 days, Female NHP): 0.39 L/L
RBC (0.5 mg/kg, 3 days, Female NHP): 5.15 10^12/L
HCT (0.5 mg/kg, 3 days, Male NHP): 0.41 L/L
RBC (0.5 mg/kg, 3 days, Male NHP): 5.13 10^12/L
HCT (0.5 mg/kg, 7 days, Female NHP): 0.45 L/L
RBC (0.5 mg/kg, 7 days, Female NHP): 5.68 10^12/L
HCT (0.5 mg/kg, 7 days, Male NHP): 0.45 L/L
RBC (0.5 mg/kg, 7 days, Male NHP): 5.55 10^12/L
HCT [8]: 0.4 L/L
RBC [8]: 5.26 10^12/L
HCT (0.5 mg/kg, Pre-dose, Male NHP): 0.44 L/L
RBC (0.5 mg/kg, Pre-dose, Male NHP): 5.43 10^12/L
reticulocytes 3 days to 14/18 days after dosing relative to 24 hours after dosing (all dose groups): increase in reticulocytes
effect on hemoglobin (HGB), hematocrit (HCT) and red blood cell (RBC) count (cynomolgus monkey, in vivo): had an effect
